In patent publication US20050037965A1:

Target: human p21-activated kinase 1 (PAK1) (human) (UniProt Q13153)
Test: cell-based or functional assay

PAK1 inhibitory domain (PAK1-ID), HA-tagged PAK1 residues 83 to 149
inhibition of IL-1β induced expression of PGE2 in SW1353 cells (ELISA of supernatants): > 50% | inhibition of IL-1β-induced expression of MMP13 in SW1353 cells (ELISA of supernatants): 55% | inhibition of basal MMP13 expression in non-stimulated SW1353 cells (ELISA of supernatants): > 80%
